The source of these data is PMC12416549 (2024).

Where a chain is given by its changes, count along the chain named. Numbers in names are those of the source.

T1: TNFR1 (Homo sapiens, UniProt P19438)
T1 chain: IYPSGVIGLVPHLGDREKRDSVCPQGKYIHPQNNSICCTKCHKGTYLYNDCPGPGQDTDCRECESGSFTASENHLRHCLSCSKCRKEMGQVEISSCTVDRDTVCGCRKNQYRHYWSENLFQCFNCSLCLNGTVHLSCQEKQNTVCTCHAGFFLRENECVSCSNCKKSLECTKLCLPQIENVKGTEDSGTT

B1: K27N (designed binder)
chain: SMEEEVEKAAKEYEKKKKEAIEKHLENLKAKDKEAAERFLKELEEAAKEYAKDEAKTMSEEEAKRRAKKYKEKVLLSELSEEEQKEIKEAEEKLVRTILKYVEEAAK
B2: K68F (designed binder)
chain: B1 chain with N27K, K68F
B3: A30I (designed binder)
chain: B1 chain with N27K, A30I
B4: I87G (designed binder)
chain: B1 chain with N27K, I87G
B5: R38F (designed binder)
chain: B1 chain with N27K, R38F
B6: A67M (designed binder)
chain: B1 chain with N27K, A67M
B7: A30W (designed binder)
chain: B1 chain with N27K, A30W
B8: E49D (designed binder)
chain: B1 chain with N27K, E49D
B9: L28P (designed binder)
chain: B1 chain with N27K, L28P
B10: R66K (designed binder)
chain: B1 chain with N27K, R66K
B11: R96M (designed binder)
chain: B1 chain with N27K, R96M
B12: L43N (designed binder)
chain: B1 chain with N27K, L43N
B13: Q84N (designed binder)
chain: B1 chain with N27K, Q84N
B14: E83H (designed binder)
chain: B1 chain with N27K, E83H
B15: K100W (designed binder)
chain: B1 chain with N27K, K100W
B16: S1C (designed binder)
chain: B1 chain with S1C, N27K
B17: S77C (designed binder)
chain: B1 chain with N27K, S77C
B18: A105M (designed binder)
chain: B1 chain with N27K, A105M
B19: E92T (designed binder)
chain: B1 chain with N27K, E92T
B20: E12C (designed binder)
chain: B1 chain with E12C, N27K
B21: Y50S (designed binder)
chain: B1 chain with N27K, Y50S
B22: E42L (designed binder)
chain: B1 chain with N27K, E42L
B23: A55L (designed binder)
chain: B1 chain with N27K, A55L
B24: M2G (designed binder)
chain: B1 chain with M2G, N27K
B25: E22I (designed binder)
chain: B1 chain with E22I, N27K
B26: D53P (designed binder)
chain: B1 chain with N27K, D53P
B27: Y50M (designed binder)
chain: B1 chain with N27K, Y50M
B28: E78M (designed binder)
chain: B1 chain with N27K, E78M
B29: E3N (designed binder)
chain: B1 chain with E3N, N27K
B30: L79Y (designed binder)
chain: B1 chain with N27K, L79Y
B31: K16M (designed binder)
chain: B1 chain with K16M, N27K
B32: A35Y (designed binder)
chain: B1 chain with N27K, A35Y
B33: S80T (designed binder)
chain: B1 chain with N27K, S80T
B34: K27M (designed binder)
chain: B1 chain with N27M
B35: L76K (designed binder)
chain: B1 chain with N27K, L76K
B36: E92C (designed binder)
chain: B1 chain with N27K, E92C
B37: S59R (designed binder)
chain: B1 chain with N27K, S59R
B38: V6Y (designed binder)
chain: B1 chain with V6Y, N27K
B39: S1Y (designed binder)
chain: B1 chain with S1Y, N27K
B40: E5W (designed binder)
chain: B1 chain with E5W, N27K
B41: E91K (designed binder)
chain: B1 chain with N27K, E91K
B42: A63K (designed binder)
chain: B1 chain with N27K, A63K
B43: R66T (designed binder)
chain: B1 chain with N27K, R66T
B44: K23Y (designed binder)
chain: B1 chain with K23Y, N27K
B45: E19R (designed binder)
chain: B1 chain with E19R, N27K
B46: E54C (designed binder)
chain: B1 chain with N27K, E54C
B47: K107E (designed binder)
chain: B1 chain with N27K, K107E
B48: R66H (designed binder)
chain: B1 chain with N27K, R66H
B49: A106W (designed binder)
chain: B1 chain with N27K, A106W
B50: D32M (designed binder)
chain: B1 chain with N27K, D32M
B51: L25F (designed binder)
chain: B1 chain with L25F, N27K
B52: E89R (designed binder)
chain: B1 chain with N27K, E89R
B53: L79K (designed binder)
chain: B1 chain with N27K, L79K
B54: A55D (designed binder)
chain: B1 chain with N27K, A55D
B55: R38W (designed binder)
chain: B1 chain with N27K, R38W

The experiment deals with T1, TNFR1. Nature of the experiment: yeast display SC50.
B1: the “apparent Kd (screen)” value was 0.653 nM. For the molecule B2, the “apparent Kd (screen)” value was 3 nM. The figure for B3 is 0.653 nM; for B4 it is 13.8 nM; for B5 it is 1.05 nM.

Regarding B6, the “apparent Kd (screen)” value came out at 7.78 nM. The figure for B7 is 0.593 nM; for B8 it is 4.39 nM. Regarding B9, the “apparent Kd (screen)” value came out at 13.8 nM. The figure for B10 is 10.4 nM. The figure for B11 is 1.05 nM; for B12 it is 0.446 nM. The figure for B13 is 2.48 nM; for B14 it is 1.27 nM; for B15 it is 1.05 nM. For B16, the “apparent Kd (screen)” value came out at 15.2 nM. With B17, the “apparent Kd (screen)” value was 1.54 nM.

Consider B18, for which the “apparent Kd (screen)” value is 3 nM. Next, B19: 3.3 nM. The figure for B20 is 0.956 nM; for B21 it is 5.31 nM; for B22 it is 7.07 nM. Next, B23: 0.593 nM; B24: 0.446 nM; B25: 1.16 nM. Regarding B26, the “apparent Kd (screen)” value amounted to 0.869 nM. Next, B27: 0.446 nM; B28: 0.956 nM.

B29: the “apparent Kd (screen)” value turned out to be 2.73 nM.

Consider B30, for which the “apparent Kd (screen)” value amounted to 12.5 nM. Turning to B31, the “apparent Kd (screen)” value came out at 0.446 nM. The figure for B32 is 1.27 nM. Next, B33: 1.27 nM; B34: 1.05 nM; B35: 3.3 nM. Next, B36: 6.43 nM; B37: 1.05 nM.

As for B38, the “apparent Kd (screen)” value came to 0.446 nM. Next, B39: 3 nM; B40: 0.539 nM; B41: 11.4 nM.

In the case of B42, the “apparent Kd (screen)” value worked out at 8.56 nM.

As for B43, the “apparent Kd (screen)” value stood at 16.7 nM. The figure for B44 is 0.368 nM.

With B45, the “apparent Kd (screen)” value came out at 0.446 nM. Next, B46: 11.4 nM; B47: 1.54 nM; B48: 24.4 nM. Regarding B49, the “apparent Kd (screen)” value was 0.368 nM. Next, B50: 5.84 nM; B51: 0.49 nM; B52: 2.73 nM.

As to B53, the “apparent Kd (screen)” value was 0.304 nM.

On to B54, for which the “apparent Kd (screen)” value turned out to be 12.5 nM. The figure for B55 is 0.446 nM.
